From US20240034774A1 (Gilead, published 2024)
Substitutions are numbered along the chain they refer to.

B1: Antibody A-1 (antibody, human IgG1, kappa)
heavy: QVQLLQSGAAVTKPGASVRVSCEASGYNIRDYFIHWWRQAPGQGLQWVGWINPKTGQPNNPRQFQGRVSLTRHASWDFDTFSFYMDLKALRSDDTAVYFCARQRSDYWDFDVWGSGTQVTVSSASTKGPSVFPLAPSSKSTSGGTAALGCLVKDYFPEPVTVSWNSGALTSGVHTFPAVLQSSGLYSLSSVVTVPSSSLGTQTYICNVNHKPSNTKVDKKVEPKSCDKTHTCPPCPAPELLAGPDVFLFPPKPKDTLMISRTPEVTCVVVDVSHEDPEVKFNWYVDGVEVHNAKTKPREEQYNSTYRVVSVLTVLHQDWLNGKEYKCKVSNKALPLPEEKTISKAKGQPREPQVYTLPPSREEMTKNQVSLTCLVKGFYPSDIAVEWESNGQPENNYKTTPPVLDSDGSFFLYSKLTVDKSRWQQGNVFSCSVLHEALHSHYTQKSLSLSPGK
light: DIQMTQSPSSLSASVGDTVTITCQANGYLNWYQQRRGKAPKLLIYDGSKLERGVPSRFSGRRWGQEYNLTINNLQPEDIATYFCQVYEFVVPGTRLDLKRTVAAPSVFIFPPSDEQLKSGTASVVCLLNNFYPREAKVQWKVDNALQSGNSQESVTEQDSKDSTYSLSSTLTLSKADYEKHKVYACEVTHQGLSSPVTKSFNRGEC
B2: 1.1.3-1 (antibody, human IgG1, kappa)
heavy: B1 heavy
light: B1 light with D1E
B3: 1.1.4-1 (antibody, human IgG1, kappa)
heavy: B1 heavy
light: B1 light with T18R
B4: 1.1.5-1 (antibody, human IgG1, kappa)
heavy: B1 heavy
light: B1 light with R35K, R36P
B5: 1.1.6-1 (antibody, human IgG1, kappa)
heavy: B1 heavy
light: B1 light with G47A
B6: 1.1.7-1 (antibody, human IgG1, kappa)
heavy: B1 heavy
light: B1 light with K49N
B7: 1.1.8-1 (antibody, human IgG1, kappa)
heavy: B1 heavy
light: B1 light with G47A, K49N
B8: 1.1.9-1 (antibody, human IgG1, kappa)
heavy: B1 heavy
light: B1 light with R52T
B9: 1.1.10-1 (antibody, human IgG1, kappa)
heavy: B1 heavy
light: B1 light with N68T
B10: 1.1.11-1 (antibody, human IgG1, kappa)
heavy: B1 heavy
light: B1 light with R61S, N68T
B11: 1.1.12-1 (antibody, human IgG1, kappa)
heavy: B1 heavy
light: B1 light with N72S, N73S
B12: 1.1.13-1 (antibody, human IgG1, kappa)
heavy: B1 heavy
light: B1 light with R61S, N68T, N72S, N73S
B13: 1.1.15-1 (antibody, human IgG1, kappa)
heavy: B1 heavy
light: B1 light with V90F
B14: 1.1.16-1 (antibody, human IgG1, kappa)
heavy: B1 heavy
light: B1 light with V91G
B15: 1.1.17-1 (antibody, human IgG1, kappa)
heavy: B1 heavy
light: B1 light with V90F, V91G
B16: 1.1.18-1 (antibody, human IgG1, kappa)
heavy: B1 heavy
light: B1 light with V91S
B17: 1.1.19-1 (antibody, human IgG1, kappa)
heavy: B1 heavy
light: B1 light with V91T
B18: 1.1.20-1 (antibody, human IgG1, kappa)
heavy: B1 heavy
light: B1 light with R95N
B19: 1.1.21-1 (antibody, human IgG1, kappa)
heavy: B1 heavy
light: B1 light with V91G, R95N
B20: 1.36.1-1 (antibody, human IgG1, kappa)
heavy: QVQLVQSGAEVKKPGASVRVSCKASGYNIRDYFMHWWRQAPGQGLQWVGWINPKTGQPNNPRQFQGRVTMTRHASWDFDTFSAYMDLSRLRSDDTATYFCARQRTDYWDFDVWGQGTMVTVSSASTKGPSVFPLAPSSKSTSGGTAALGCLVKDYFPEPVTVSWNSGALTSGVHTFPAVLQSSGLYSLSSVVTVPSSSLGTQTYICNVNHKPSNTKVDKKVEPKSCDKTHTCPPCPAPELLAGPDVFLFPPKPKDTLMISRTPEVTCVVVDVSHEDPEVKFNWYVDGVEVHNAKTKPREEQYNSTYRVVSVLTVLHQDWLNGKEYKCKVSNKALPLPEEKTISKAKGQPREPQVYTLPPSREEMTKNQVSLTCLVKGFYPSDIAVEWESNGQPENNYKTTPPVLDSDGSFFLYSKLTVDKSRWQQGNVFSCSVLHEALHSHYTQKSLSLSPGK
light: B1 light

Experiments:
[1] = biological target: BSA (UniProt P02769 25-607); assay: single-point ELISA, BSA control
[2] = biological target: gp120 Bal (HIV (Bal)); assay: single-point ELISA at EC50 conc. of A-1
[3] = biological target: gp120 SHIV SF162 P3 (SHIV SF162 P3); assay: single-point ELISA at EC50 conc. of A-1
[4] = biological target: gp120 CAAN (HIV (CAAN)); assay: single-point ELISA at EC50 conc. of A-1

Row | Binder | ELISA A450 [1] | ELISA A450 [2] | ELISA A450 [3] | ELISA A450 [4]
1 | B1 | 0.06 A450 | 0.91 A450 | 0.94 A450 | 1.06 A450
2 | B2 | 0.07 A450 | 0.97 A450 | 0.97 A450 | 1 A450
3 | B3 | 0.06 A450 | 0.96 A450 | 1.07 A450 | 1.09 A450
4 | B4 | 0.06 A450 | 0.9 A450 | 0.93 A450 | 0.9 A450
5 | B5 | 0.07 A450 | 0.91 A450 | 0.41 A450 | 0.46 A450
6 | B6 | 0.06 A450 | 0.95 A450 | 1.02 A450 | 1 A450
7 | B7 | 0.06 A450 | 1.01 A450 | 0.37 A450 | 0.5 A450
8 | B8 | 0.07 A450 | 0.98 A450 | 1.09 A450 | 0.93 A450
9 | B9 | 0.06 A450 | 0.94 A450 | 1.02 A450 | 1.1 A450
10 | B10 | 0.06 A450 | 0.92 A450 | 0.93 A450 | 1.03 A450
11 | B11 | 0.06 A450 | 1.05 A450 | 1.13 A450 | 1.02 A450
12 | B12 | 0.06 A450 | 0.94 A450 | 0.97 A450 | 1.11 A450
13 | B13 | 0.06 A450 | 0.93 A450 | 0.79 A450 | 0.79 A450
14 | B14 | 0.06 A450 | 1.06 A450 | 1.05 A450 | 0.99 A450
15 | B15 | 0.06 A450 | 1.02 A450 | 1.07 A450 | 0.9 A450
16 | B16 | 0.06 A450 | 0.92 A450 | 0.94 A450 | 0.92 A450
17 | B17 | 0.06 A450 | 1.03 A450 | 1.12 A450 | 1.05 A450
18 | B18 | 0.07 A450 | 0.94 A450 | 1.01 A450 | 0.95 A450
19 | B19 | 0.06 A450 | 0.98 A450 | 1.03 A450 | 0.99 A450
20 | B20 | – | 1.13 A450 | 0.59 A450 | 0.75 A450
